Measured values published in paper PMC9876794 (2022).

B1: D116 (antibody, V domains shown)
VH: EVQLVESGGGLVLPGGSLRLSCVASGFTFSSYWMTWVRQAPGKGLEWVANIQRDGREKYYVDSLKGRFSISRDNDKNSLYLQMNNLRAEDTGVYYCARAQTCTTCSSPNWFDPWGQGTLVTVSS
VL: QSVLTQPASVSGSPGQSITISCTGTSSDVGSYNLVSWYQQHPGKAPKLIIYEGSKRPSGVSNRFSGSKSGNTASLTISGLQAEDEADYYCCSYAGSNTLVFGGGTKVTVL
B2: D134 (antibody, V domains shown)
VH: EVQLVESGGGVVQPGGSLRLSCAASGFTFDDYAMHWVRQAPGKGLEWVSLISGDGGSTYYADSVKGRFTISRDNSKNSLYLQMNSLRTEDTALYYCANGERGGNPRGGYYYYGMDVWGQGTTVTVSS
VL: EIVLTQSPATLSLSPGERATLSCRASQSVSSYLAWYQQKPGQAPRLLIYDASNRATGIPARFSGSGSGTDFTLTISSLEPEDFAVYYCQQRSNWPPYTFGQGTKLEIK
B3: D090 (antibody, V domains shown)
VH: EVQLVESGGGLVQPGRSLRLSCAASGFTFDDYAMHWVRQAPGKGLEWVSGISWNSGSIGYADSVKGRFTISRDNAKNSLYLQMNSLRAEDMALYYCAKGLPYSSSWYDAFDIWGQGTMVTVSS
VL: not shown
B4: D187 (antibody, V domains shown)
VH: QVQLVQSGAEVKKPGSSVKVSCKASGGTFSSYAISWVRQAPGQGLEWMGGIIPIFGTANYAQKFQGRVTITADESTSTAYMELSSLRSEDTAVYYCATRGWSGYQTMQKNAFDIWGQGTMVTVSS
VL: not shown
B5: D133 (antibody, V domains shown)
VH: EVQLVESGGGLVQPGGSLRLSCAASGFTFSSYDMHWVRQATGKGLEWVSAIGTAGDTYYPGSVKGRFTISRENAKNSLYLQMNSLRAGDTAVYYCARGTTVSQQYPSGIPYYYGMDVWGQGTTVTVSS
VL: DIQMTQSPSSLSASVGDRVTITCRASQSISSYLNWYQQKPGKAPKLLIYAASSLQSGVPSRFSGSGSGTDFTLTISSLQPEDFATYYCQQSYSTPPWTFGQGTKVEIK
B6: D135 (antibody, V domains shown)
VH: EVQLVESGGGLIQPGGSLRLSCAASGFTVSSNYMTWVRQAPGKGLEWVSLIYSGGSTYYTDSVKGRFTISRDNSKNTLYLQMNSLRAEDTAVYYCARLLITMVRGVISSGLDYWGQGTLVTVSS
VL: EIVLTQSPGTLSLSPGERATLSCRASQSVSSSYLAWYQQRPGQPPRLLIYGASSRATGIPDRFSDSGSGTDFTLTISRLEPEDFAVYYCQQYGSSPPITFGQGTRLDIK
B7: D011 (antibody, V domains shown)
VH: EVQLVESGGGLVQPGRSLRLSCAASGFTFDDYAMHWVRQAPGKGLEWVSGISWNSGSIGYADSVKGRFTISRDNAKNSLYLQMNSLRAEDTALYYCAKGDSSGYYFAYEDYGMDVWGQGTTVTVSS
VL: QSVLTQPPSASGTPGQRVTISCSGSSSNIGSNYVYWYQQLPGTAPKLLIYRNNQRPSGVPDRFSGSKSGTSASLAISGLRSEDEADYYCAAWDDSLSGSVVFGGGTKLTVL
B8: D130 (antibody, V domains shown)
VH: EVQLVESGGGLVQPGRSLRLSCAASGFTFDDYAMHWVRQAPGKGLEWVSGISWNSGSIGYADSVKGRFTISRDNAKNSLYLQMNSLRAEDTALYYCAKSGLYGDYDAAFDYWGQGTLVTVSS
VL: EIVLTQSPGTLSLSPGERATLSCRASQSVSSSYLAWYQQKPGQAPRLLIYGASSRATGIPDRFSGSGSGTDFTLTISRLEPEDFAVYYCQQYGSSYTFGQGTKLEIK
B9: D087 (antibody, V domains shown)
VH: QVQLVQSGAEVKKPGASVKVSCKASGYTFTNYDFNWVRQAPGQGLEWMGWMNPNSGNTGYAQKFQGRVTITRNTSINTAYMELSSLRSEDTAVYYCARAPDCSSFSCSYYFDYWGQGTLVTVSS
VL: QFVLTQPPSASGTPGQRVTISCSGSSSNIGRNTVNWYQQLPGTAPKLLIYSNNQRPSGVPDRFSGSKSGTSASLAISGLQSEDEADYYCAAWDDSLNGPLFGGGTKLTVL
B10: D119 (antibody, V domains shown)
VH: QLQLQESGPGLVKPSETLSLTCTVSGGSISSSSYYWGWIRQPPGKGLEWIGSIYYSGSTYYNPSLKSRVTISVDTSKNQFSLKLSSVTAADTAVYYCARLYSSGWYAFISWGQGTLVTVSS
VL: not shown
B11: D181 (antibody, V domains shown)
VH: QVQLQESGPGLVKPSQTLSLTCTVSGGSISSGGYYWSWIRQHPGKGLEWIGYIYYSGSTYYNPSLKSRVTISVDTSKNQFSLKLSSVTAADTAVYYCARDRMEIYYDSSGYHPGPFDYWGQGTLVTVSS
VL: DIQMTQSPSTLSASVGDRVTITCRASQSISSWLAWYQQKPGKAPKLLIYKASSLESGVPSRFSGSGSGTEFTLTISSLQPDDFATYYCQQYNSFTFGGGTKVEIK
B12: D151 (antibody, V domains shown)
VH: QVQLQQWGAGLLKPSETLSLTCAVYGGSFSGYYWSWIRQPPGKGLEWIGEINHDGDTNYNPSLKSRVTLSVDTSKNQFSLSLSSVTAADTAVYYCARRKQQQSYYYYSIDVWGQGTTVTVSS
VL: DIQMTQSPSSLSASVGDRVTITCRATQGIRNDLGWYQQKPGKAPKRLIYAASSLQSGVPSRFSGSGSGTEFTLTISSLQPEDFATYYCLQHSSYPLTFGGGTKVEIK
B13: D110 (antibody, V domains shown)
VH: EVQLLESGGGLVQPGGSLRLSCTASGFTFSNYAMNWVRQAPGQGLEWVSAISGSGYSTYYVDSAKGRFTISRDNSKNTLYLQMNSLRADDTAVFYCTKSTYYDNSGYYSVFDYWGQGTLVTVSS
VL: NFMLTQPHSVSESPGETVTISCTRSSGNIASKFVQWFQQRPGSSPTTVIYENNQRPSGVPDRFSGSIDSSSNSASLTISGLKTEDEADYYCQSSDSTNVVFGGGTKLTVL
B14: D139 (antibody, V domains shown)
VH: QVQLVESGGGVVQPGRSLRLSCAASGFTFSSYGMHWVRQAPGKGLEWVAVISYDGSNKYYADSVKGRFTISRDNSKNTLYLQMNSLRAEDTAVYYCAKMGGGVYCSGGSCYSSYFDYWGQGTLVTVSS
VL: AIQLTQSPSSLSASVGDRVTITCRASQGISSALAWYQQKPGKAPKLLIYDASSLESGVPSRFSGSGSGTDFTLTISSLQPEDFATYYCQQFNNYLPLTFGGGTKVEIK
B15: D175 (antibody, V domains shown)
VH: QLQLQESGPGLVKPSETLSLTCTVSGGSISSSSYYWGWIRQPPGKGLEWIGSIYYSGSTYYNPSLKSRVTISVDTSKNQFSLKLSSVTAADTAVYYCARGATYYYDSSGYYTPAPFDYWGQGTLVTVSS
VL: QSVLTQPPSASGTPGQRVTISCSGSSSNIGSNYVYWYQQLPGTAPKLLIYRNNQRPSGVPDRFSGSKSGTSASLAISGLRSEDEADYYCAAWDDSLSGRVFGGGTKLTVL
B16: C2725 (antibody, V domains shown)
VH: EVQLVESGGGLVQPGRSLRLSCAASGFTFDDYAMHWVRQAPGKGLEWVSGISWNSGSIGYADSVKGRFTISRDNAKNSLYLQMNSLRAEDTALYYCAKLSRGHYYDFKADSGDFDYWGQGTLVTVSS
VL: QSALTQPASVSGSPGQSITISCTGTSSDVGSYNLVSWYQQHPGKAPKLMIYEGSKRPSGVSNRFSGSKSGNTASLTISGLQAEDEADYYCCSYAGSSWVFGGGTKLTVL
B17: C2692 (antibody, V domains shown)
VH: EVQLVESGGGLVQPGRSLRLSCAASGFTFDDYAMHWVRQAPGKGLEWVSGISWNSGSIGYADSVKGRFTISRDNAKNSLYLQMNSLRAEDTALYYCAKDIDTMVQGGEFYFDYWGQGTLVTVSS
VL: QSALTQPASVSGSPGQSITISCTGTSSDVGGYNYVSWYQQHPGKAPKLMIYDVSNRPSGVSNRFSGSKSGNTASLTISGLQAEDEADYYCSSYTSSSTVVFGGGTKLTVL
B18: D026 (antibody, V domains shown)
VH: EVQLVESGGGLVQPGRSLRLSCAASGFTFDDYAMHWVRQAPGKGLEWVSGISWNSGSIGYADSVKGRFTISRDNAKNSLYLQMNSLRAEDTALYYCAKDIHYDSSGLDYWGQGTLVTVSS
VL: not shown
B19: D170 (antibody, V domains shown)
VH: QVQLVQSGAEVKKPGSSVKVSCKASGGTFSSYAISWVRQAPGQGLEWMGGIIPIFGTANYAQKFQGRVTITADESTSTAYMELSSLRSEDTAVYYCAREGGYCSGGSCSHYFDAFDIWGQGTMVTVSS
VL: QSALTQPASVSGSPGQSITISCTGTSSDVGSYNLVSWYQQHPGKAPKLMIYEGSKRPSGVSNRFSGSKSGNTASLTISGLQAEDEADYYCCSYAGSSTFWVFGGGTKLTVL

The binders below were run against SARS-CoV-2 spike RBD (WT) (Severe acute respiratory syndrome …, UniProt P0DTC2) (assay: ELISA).
Parameters: unit not given here
B1 was tested, and the binding score was > 10000.
In the case of B2, the binding score is reported as > 10000.
B3 was tested, and the binding score was > 10000.
With B4 the binding score was > 10000.
In the case of B5, the binding score is reported as > 10000.
For B6, the binding score was 1110.
In the case of B7, the binding score is reported as > 10000.
In the case of B8, the binding score is reported as > 10000.
With B9 the binding score was > 10000.
B10 was tested, and the binding score was > 10000.
B11 was tested, and the binding score was > 10000.
For B12, the binding score was > 10000.
B13 showed a binding score of 2330.
In the case of B14, the binding score is reported as 311.
With B15 the binding score was > 10000.
For B16, the binding score was 230.
B17 showed a binding score of 1200.
With B18 the binding score was > 10000.
Work on B19 yielded a binding score of 3050.
